Earlier results as cited in patent US20230398266A1, “THERAPEUTIC AGENT FOR USE IN LOCAL TREATMENT OF INFLAMMATION ASSOCIATED WITH ATHEROSCLEROSIS AND/OR A THROMBOTIC STATE” (priority 2020, published 2023).

Key:
patients with COVID-19 = settings: for side effects related to systemic administration: patients with COVID-19; for results in patients with COVID-19: systemic administration, preliminary studies
[1] = system: patients with previous myocardial infarction and elevated inflammatory indices; settings: systemic administration; compared to placebo

## anakinra
Patients with COVID-19
  side effects related to systemic administration: severe side effects
  results in patients with COVID-19: encouraging results

## canakinumab
[1]
  incidence of cardiovascular events (death from heart disease, myocardial infarction, cerebral stroke): lower incidence of cardiovascular events compared to placebo
  incidence of serious side effects such as fatal sepsis and thrombocythemia: higher incidence of serious side effects

## tocilizumab
Patients with COVID-19
  side effects related to systemic administration: severe side effects
  results in patients with COVID-19: encouraging results
